What was measured:
[1] = biological target: histone H1 present on surfaces of apoptotic cells (apoptotic SNU16 human stomach cancer cells) (human) (UniProt P07305); test: flow cytometry, FITC-peptide on SNU16 cells treated with cisplatin alone for 24 h
[2] = biological target: histone H1 present on surfaces of apoptotic cells (apoptotic SNU16 human stomach cancer cells) (human) (UniProt P07305); test: flow cytometry, FITC-peptide on SNU16 cells treated with cetuximab alone for 24 h
[3] = biological target: histone H1 present on surfaces of apoptotic cells (apoptotic SNU16 human stomach cancer cells) (human) (UniProt P07305); test: flow cytometry, FITC-peptide on SNU16 cells treated with cisplatin and cetuximab in combination for 24 h

| percentage of apoptotic cells detected (peptide-bound fluorescent cells) [1] | percentage of apoptotic cells detected (peptide-bound fluorescent cells) [2] | percentage of apoptotic cells detected (peptide-bound fluorescent cells) [3] | Substance |
| --- | --- | --- | --- |
| 56% | 49% | 78% | cyclic form of ApoPep-1 (cyclo[Cys-Gln-Arg-Pro-Pro-Arg-Cys] peptide) |
| 28% | 25% | 34% | linear form of ApoPep-1 (CQRPPR) (peptide) |
